Read-outs that look alike come from different tables or passages of the source.
What was measured:
[1] = test system: high cardiovascular risk patients with hypercholesterolemia; assay: ODYSSEY LONG TERM: lipid efficacy of alirocumab 150 mg Q2W vs placebo; assay type: in vivo, human; conditions: intention-to-treat, Week 78 (final analysis)
[2] = test system: high cardiovascular risk patients with hypercholesterolemia; conditions: in vivo
Experimental: Safety parameters (adverse events [including adjudicated cardiovascular events], laboratory data, vital signs, and ECG) were assessed throughout the study.
Safety endpoints assessed in this trial were: cardiovascular events; allergic events; local tolerability at injection site; other adverse events (including hemolytic anemia); laboratory tests: urinalysis, hematology (red blood cell count, red blood cell distribution width (RDW), reticulocyte count, hemoglobin, hematocrit, platelets, white blood cell count with differential blood count), standard chemistry (sodium, potassium, chloride, bicarbonate, calcium, phosphorous, urea nitrogen, creatinine, uric acid, total protein, albumin, LDH, γ Glutamyl Transferase [γGT]), Vitamin E (alpha tocopherol) and other Fat Soluble Vitamins, cortisol (and reflexive ACTH levels, as needed, followed by ACTH stimulation test, as needed), Gonadal Hormone Assessments, Hepatitis C antibody, liver panel (ALT, AST, ALP, and total bilirubin), and CPK; vital signs including heart rate and blood pressure; and 12-lead ECG.
(§1) The safety population included all randomized patients who received at least one dose or part of a dose of the double-blind IMP.
Safety analyses were descriptive, performed on the safety population according to treatment actually received. The safety analysis focused on the TEAE period defined as the time from the first dose of double-blind injection up to 70 days after the last double-blind injection. TEAE which developed, worsened or became serious or PCSA occurring after the patient's first injection in the open-label extension study (LTS13643) were not considered in the TEAE period. TEAE period was truncated at the common study cut-off date.

[3] = test system: high cardiovascular risk patients with hypercholesterolemia; conditions: in vivo; remark: listed apart in the source
Experimental: (§2) Safety assessments during both studies were as follows. Safety was assessed through adverse event (AE) reporting (including adjudicated cardiovascular events), laboratory analyses, and vital signs measurement. Since the LDL-C-lowering effects of PCSK9 inhibition on top of a statin are unknown, a number of AEs were defined as being of special interest and were monitored, including alanine aminotransferase abnormalities, allergic events, hemolytic anemia, pregnancy, overdose with study drug, neurologic events, ophthalmic events, and local injection site reactions.
(§3) Safety Analyses were as follows. AEs (including adjudicated cardiovascular events), laboratory parameters, and vital signs were reported descriptively, based on the safety population (all randomized patients who received at least 1 dose or partial dose of study treatment). The safety analysis focused on the treatment-emergent AE period defined as the time from the first double-blind dose to the last double-blind dose of the investigational product +70 days (10 weeks).
as §1
(§4) Safety analyses were descriptive, performed on the safety population according to treatment actually received. For analysis of TEAE and PCSA, the safety analysis focused on the TEAE period defined as the time from the first dose of double-blind IMP administration (capsule or injection, whichever comes first) up to 70 days after the last double-blind injection.

[4] = test system: high cardiovascular risk patients with hypercholesterolemia; assay: ODYSSEY COMBO II: safety (TEAEs, adjudicated CV events, laboratory parameters, low LDL-C)
Experimental: as §2, §3, §1, §4

[5] = alirocumab patients with two consecutive LDL-C ≦25 mg/dL (n = 105), number (%) of patients
[6] = safety population at 52 weeks, all patients, number (%) of patients
[7] = treatment period, safety population

**Q.** Which “Percent decrease in LDL cholesterol” value [1] does the source give for “Alirocumab: human anti-PCSK9 antibody; HCVR SEQ ID NO:1, LCVR SEQ ID NO:6; CDRs SEQ ID NOs 2/3/4/7/8/10” here?
**A.** 52%

**Q.** What about the “TEAE Lower respiratory tract infection (LRTI), % of patients” value [2] of the same substance?
**A.** 3.0% (46)

**Q.** What about the “TEAE Upper respiratory tract infection (URTI), % of patients” value [2] of the same substance?
**A.** 7.0% (109)

**Q.** What about the “TEAE Urinary tract infection, % of patients” value [2] of the same substance?
**A.** 5.2% (81)

**Q.** What about the “TEAEs by System-Organ-Class: Infections and infestations, % of patients” value [2] of the same substance?
**A.** 45.5% (705)

**Q.** And the “TEAE preferred term: Upper respiratory tract infection” value [3]?
**A.** 31 (6.5)

**Q.** What about the “TEAE system organ class: Infections and infestations” value [3] of the same substance?
**A.** 130 (27.1)

**Q.** And the “Laboratory parameters: Blood glucose increased” value [4, 5]?
**A.** 1 (1.0)

**Q.** And the “Laboratory parameters: Hemoglobin decreased” value [4, 5]?
**A.** 3 (2.9)

**Q.** What about the “Patients experiencing any TEAE” value [4, 5] of the same substance?
**A.** 72 (68.6)

**Q.** What about the “TEAE preferred term: Accidental overdose” value [4, 5] of the same substance?
**A.** 6 (5.7)

**Q.** And the “TEAE preferred term: Angina pectoris” value [4, 5]?
**A.** 2 (1.9)

**Q.** What about the “TEAE preferred term: Arthralgia” value [4, 5] of the same substance?
**A.** 5 (4.8)

**Q.** What about the “TEAE preferred term: Dizziness” value [4, 5] of the same substance?
**A.** 5 (4.8)

**Q.** And the “TEAE preferred term: Headache” value [4, 5]?
**A.** 4 (3.8)

**Q.** What about the “TEAE preferred term: Hypertension” value [4, 5] of the same substance?
**A.** 3 (2.9)

**Q.** What about the “TEAE preferred term: Influenza” value [4, 5] of the same substance?
**A.** 3 (2.9)

**Q.** What about the “TEAE preferred term: Myalgia” value [4, 5] of the same substance?
**A.** 4 (3.8)

**Q.** And the “TEAE preferred term: Nasopharyngitis” value [4, 5]?
**A.** 10 (9.5)

**Q.** And the “TEAE preferred term: Upper respiratory tract infection” value [4, 5]?
**A.** 4 (3.8)

**Q.** And the “TEAE system organ class: Blood and lymphatic system disorders” value [4, 5]?
**A.** 4 (3.8)

**Q.** What about the “TEAE system organ class: Cardiac disorders” value [4, 5] of the same substance?
**A.** 14 (13.3)

**Q.** And the “TEAE system organ class: Eye disorders” value [4, 5]?
**A.** 2 (1.9)

**Q.** What about the “TEAE system organ class: Gastrointestinal disorders” value [4, 5] of the same substance?
**A.** 19 (18.1)

**Q.** And the “TEAE system organ class: General disorders and administration site conditions” value [4, 5]?
**A.** 10 (9.5)

**Q.** What about the “TEAE system organ class: Infections and infestations” value [4, 5] of the same substance?
**A.** 35 (33.3)

**Q.** And the “TEAE system organ class: Injury, poisoning, and procedural complications” value [4, 5]?
**A.** 10 (9.5)

**Q.** And the “TEAE system organ class: Investigations” value [4, 5]?
**A.** 7 (6.7)

**Q.** What about the “TEAE system organ class: Metabolism and nutrition disorders” value [4, 5] of the same substance?
**A.** 6 (5.7)

**Q.** And the “TEAE system organ class: Musculoskeletal and connective tissue disorders” value [4, 5]?
**A.** 19 (18.1)

**Q.** And the “TEAE system organ class: Neoplasms, benign, malignant and unspecified (including cysts and polyps)” value [4, 5]?
**A.** 5 (4.8)

**Q.** And the “TEAE system organ class: Nervous system disorders” value [4, 5]?
**A.** 17 (16.2)

**Q.** And the “TEAE system organ class: Psychiatric disorders” value [4, 5]?
**A.** 2 (1.9)

**Q.** What about the “TEAE system organ class: Renal and urinary disorders” value [4, 5] of the same substance?
**A.** 7 (6.7)

**Q.** What about the “TEAE system organ class: Reproductive system and breast disorders” value [4, 5] of the same substance?
**A.** 4 (3.8)

**Q.** What about the “TEAE system organ class: Respiratory, thoracic, and mediastinal disorders” value [4, 5] of the same substance?
**A.** 11 (10.5)

**Q.** What about the “TEAE system organ class: Skin and subcutaneous tissue disorders” value [4, 5] of the same substance?
**A.** 10 (9.5)

**Q.** And the “TEAE system organ class: Vascular disorders” value [4, 5]?
**A.** 4 (3.8)

**Q.** And the Adjudicated cardiovascular events ([4]; in vivo)?
**A.** 4.8%

**Q.** And the SOC gastrointestinal disorders ([4]; in vivo)?
**A.** 15.0%

**Q.** And the “SOC musculoskeletal and connective tissue disorders” value ([4]; in vivo)?
**A.** 19.6%

**Q.** What about the “Safety in patients with two consecutive calculated LDL-C <25 mg/dL” value ([4]; in vivo) of the same substance?
**A.** No particular safety concern

**Q.** What about the “Treatment-emergent local injection site reactions” value ([4]; in vivo) of the same substance?
**A.** 2.5%

**Q.** What about the “Patients who experienced at least one TEAE” value ([4]; mean 58 weeks' follow-up) of the same substance?
**A.** 71.2%

**Q.** What about the Serious adverse event ([4]; mean 58 weeks' follow-up) of the same substance?
**A.** 18.8%

**Q.** What about the “TEAE leading to death” value ([4]; mean 58 weeks' follow-up) of the same substance?
**A.** 2 (0.4%) n (%)

**Q.** And the “TEAEs leading to treatment discontinuation” value ([4]; mean 58 weeks' follow-up)?
**A.** 7.5%

**Q.** What about the Tolerability ([4]; overall results) of the same substance?
**A.** well-tolerated

**Q.** And the “Time to the first calculated LDL-C value <15 mg/dL, mean” value ([4]; safety population)?
**A.** 15.07 weeks

**Q.** And the “Time to the first calculated LDL-C value <15 mg/dL, median” value ([4]; safety population)?
**A.** 9.14 weeks

**Q.** And the “Time to the first calculated LDL-C value <25 mg/dL, mean” value ([4]; safety population)?
**A.** 12.56 weeks

**Q.** What about the “Time to the first calculated LDL-C value <25 mg/dL, median” value ([4]; safety population) of the same substance?
**A.** 5.14 weeks

**Q.** What about the “Laboratory parameters: Blood glucose increased” value [4, 6] of the same substance?
**A.** 1 (0.2)

**Q.** What about the “Laboratory parameters: Hemoglobin decreased” value [4, 6] of the same substance?
**A.** 4 (0.8)

**Q.** What about the “Patients experiencing any TEAE” value [4, 6] of the same substance?
**A.** 341 (71.2)

**Q.** And the “TEAE preferred term: Accidental overdose” value [4, 6]?
**A.** 30 (6.3)

**Q.** What about the “TEAE preferred term: Angina pectoris” value [4, 6] of the same substance?
**A.** 12 (2.5)

**Q.** What about the “TEAE preferred term: Arthralgia” value [4, 6] of the same substance?
**A.** 19 (4.0)

**Q.** What about the “TEAE preferred term: Dizziness” value [4, 6] of the same substance?
**A.** 23 (4.8)

**Q.** What about the “TEAE preferred term: Headache” value [4, 6] of the same substance?
**A.** 21 (4.4)

**Q.** What about the “TEAE preferred term: Hypertension” value [4, 6] of the same substance?
**A.** 18 (3.8)

**Q.** And the “TEAE preferred term: Influenza” value [4, 6]?
**A.** 17 (3.5)

**Q.** And the “TEAE preferred term: Myalgia” value [4, 6]?
**A.** 21 (4.4)

**Q.** And the “TEAE preferred term: Nasopharyngitis” value [4, 6]?
**A.** 18 (3.8)

**Q.** And the “TEAE system organ class: Blood and lymphatic system disorders” value [4, 6]?
**A.** 11 (2.3)

**Q.** What about the “TEAE system organ class: Cardiac disorders” value [4, 6] of the same substance?
**A.** 60 (12.5)

**Q.** What about the “TEAE system organ class: Eye disorders” value [4, 6] of the same substance?
**A.** 23 (4.8)

**Q.** And the “TEAE system organ class: Gastrointestinal disorders” value [4, 6]?
**A.** 72 (15.0)

**Q.** And the “TEAE system organ class: General disorders and administration site conditions” value [4, 6]?
**A.** 56 (11.7)

**Q.** And the “TEAE system organ class: Injury, poisoning, and procedural complications” value [4, 6]?
**A.** 61 (12.7)

**Q.** And the “TEAE system organ class: Investigations” value [4, 6]?
**A.** 35 (7.3)

**Q.** What about the “TEAE system organ class: Metabolism and nutrition disorders” value [4, 6] of the same substance?
**A.** 27 (5.6)

**Q.** What about the “TEAE system organ class: Musculoskeletal and connective tissue disorders” value [4, 6] of the same substance?
**A.** 94 (19.6)

**Q.** What about the “TEAE system organ class: Neoplasms, benign, malignant and unspecified (including cysts and polyps)” value [4, 6] of the same substance?
**A.** 15 (3.1)

**Q.** What about the “TEAE system organ class: Nervous system disorders” value [4, 6] of the same substance?
**A.** 77 (16.1)

**Q.** And the “TEAE system organ class: Psychiatric disorders” value [4, 6]?
**A.** 21 (4.4)

**Q.** And the “TEAE system organ class: Renal and urinary disorders” value [4, 6]?
**A.** 21 (4.4)

**Q.** And the “TEAE system organ class: Reproductive system and breast disorders” value [4, 6]?
**A.** 12 (2.7)

**Q.** What about the “TEAE system organ class: Respiratory, thoracic, and mediastinal disorders” value [4, 6] of the same substance?
**A.** 45 (9.4)

**Q.** And the “TEAE system organ class: Skin and subcutaneous tissue disorders” value [4, 6]?
**A.** 35 (7.3)

**Q.** And the “TEAE system organ class: Vascular disorders” value [4, 6]?
**A.** 33 (6.9)

**Q.** And the “Patients with 2 consecutive calculated LDL-C value <15 mg/dL” value [4, 7]?
**A.** (6.7%)

**Q.** What about the “Patients with 2 consecutive calculated LDL-C value <25 mg/dL” value [4, 7] of the same substance?
**A.** (22.8%)

**Q.** What about the “Patients with 2 consecutive calculated LDL-C value <25 mg/dL” value ([4]; treatment period, safety population, listed as alirocumab) of the same substance?
**A.** 22.8%

Source: US20160137746A1, “METHODS FOR TREATING HIGH CARDIOVASCULAR RISK PATIENTS WITH HYPERCHOLESTEROLEMIA” (Sanofi Biotechnology, priority 2014, published 2016)
